According to a protein production outcome set (Wang et al. 2014):

Assay: label from the status in PepcDB records

Row | Sequence | protein production
1 | MLKIRCQACSTILEASYKISYNAQDMKYKNLPVYEQKDRILEMLEHNQVIVVESPTGSGKTTQLPVILHEAGYSRSGMIGVTQPRRIAALSVSEFISKQLKEPMPGLVGYKMRFEDKTSNDTKIKIMTDGILLQELKLDPWLSKYSVILVDEAHERSLNIDFILGLLKRIITERKDFKVIISSATINTDLFSMYFDGCPVIKIDAITYPVTLIFDPPAVKASTDTQEAETALMDKIASIVGRILSEGRSGAILVFLPGERAIKDCIERLSKEPWYRKLFILPLYGRLSKEEQERVFKSPPFGKKKIVISTNIAETSITINDIAAVIDSGLAKLNFYNPFTFTSSLDETLISRASCNQRRGRAGRTQEGVCYRLYTRKDFETRQLYTLEEIYRTDLSEVVMRMAELGILDFENFDFISPPGKKGIIGAIDTLNMLDALESDRSLSSIGKMMCLFPLAPRQSRIIVEAITRYPDLVEEVLIAAAFLSARSPVIFPEGEEIEARKAHALFDEPLGDFASFLKVFRMYSQALDKERFCKIHYLDDRVMAEIANIKEQLELIVSDMGVPILSGGKMEHYLTAIAKGMIQFVCSAQGRDSYRSLTTEKIFIHPGSCMYKEKEQFIVAGEIVRTSRMYAMSVSPLSKKIIEEVAPALLERKDKRAKKEKDEHRADQKEEKKKPEEESVLIEGTRYLIKKIKGKKHLILPWKEFKLTAEAVFKKYSEENQNGALEQLKGLRGKIEINKSELLSGEKMDLILNVVNNFNIEQIEKTEDEKHFDRNKNYFIEEDLEALVNSLNLLFRTTIAKKTTKQLGFITLFCDGTGHFWFKTSRGFHTALHESLVSLQSLIDLAGENFNEDQKIIVRTIYGKMNKMI | failed
2 | MLLTLPAPLRRALWAQVRRELPRECVGALGGWVRGEQVQAHALYPLPNVAADPEREYLADPGDLLRVVRAMQREGLDLVALYHSHPHGPAAPSASDRRLAAYPVPYLIADPAAEVLRAYLLPGGEEVEVRSADESNLEHHHHHH | failed
3 | MDAKARNCLLQHREALEKDIKTSYIMDHMISDGFLTISEEEKVRNEPTQQQRAAMLIKMILKKDNDSYVSFYNALLHEGYKDLAALLHDGIPVVSSSSGKDSVSGITSYVRTVLCEGGVPQRPVVFVTRKKLVNAIQQKLSKLKGEPGWVTIHGMAGCGKSVLAAEAVRDHSLLEGCFPGGVHWVSVGKQDKSGLLMKLQNLCTRLDQDESFSQRLPLNIEEAKDRLRILMLRKHPRSLLILDDVWDSWVLKAFDSQCQILLTTRDKSVTDSVMGPKYVVPVESSLGKEKGLEILSLFVNMKKADLPEQAHSIIKECKGSPLVVSLIGALLRDFPNRWEYYLKQLQNKQFKRIRKSSSYDYEALDEAMSISVEMLREDIKDYYTDLSILQKDVKVPTKVLCILWDMETEEVEDILQEFVNKSLLFCDRNGKSFRYYLHDLQVDFLTEKNCSQLQDLHKKIITQFQRYHQPHTLSPDQEDCMYWYNFLAYHMASAKMHKELCALMFSLDWIKAKTELVGPAHLIHEFVEYRHILDEKDCAVSENFQEFLSLNGHLLGRQPFPNIVQLGLCEPETSEVYQQAKLQAKQEVDNGMLYLEWINKKNITNLSRLVVRPHTDAVYHACFSEDGQRIASCGADKTLQVFKAETGEKLLEIKAHEDEVLCCAFSTDDRFIATCSVDKKVKIWNSMTGELVHTYDEHSEQVNCCHFTNSSHHLLLATGSSDCFLKLWDLNQKECRNTMFGHTNSVNHCRFSPDDKLLASCSADGTLKLWDATSANERKSINVKQFFLNLEDPQEDMEVIVKCCSWSADGARIMVAAKNKIFLFDIHTSGLLGEIHTGHHSTIQYCDFSPQNHLAVVALSQYCVELWNTDSRSKVADCRGHLSWVHGVMFSPDGSSFLTSSDDQTIRLWETKKVCKNSAVMLKQEVDVVFQENEVMVLAVDHIRRLQLINGRTGQIDYLTEAQVSCCCLSPHLQYIAFGDENGAIEILELVNNRIFQSRFQHKKTVWHIQFTADEKTLISSSDDAEIQVWNWQLDKCIFLRGHQETVKDFRLLKNSRLLSWSFDGTVKVWNIITGNKEKDFVCHQGTVLSCDISHDATKFSSTSADKTAKIWSFDLLLPLHELRGHNGCVRCSAFSVDSTLLATGDDNGEIRIWNVSNGELLHLCAPLSEEGAATHGGWVTDLCFSPDGKMLISAGGYIKWWNVVTGESSQTFYTNGTNLKKIHVSPDFKTYVTVDNLGILYILQTLE | failed
4 | MVPALALGLVIGVLLVVIGVSFAAMIFSGPLAPLATRGAGLTLFGAASLCGFLAVSSSFRSAISTPQDAPVAVLATMGVPVVAAMGMSDPNATFATMLAAMSIATLATGIALMAIGHFRLTRFFRFMPYPVVGGFLAGGGWMLVKGGISVMSSLSLNVESLPMLFESVHIWKWSPGVLYAISLWLVLKRWSHFLILPCSIVMVTAAYYVAFHILAISLADARAAGILLSGVPSSGLWPAFSISDLQTVRWDIVFDQTPIMFTVVLVTMMGLLLNISGLELGSGTDIDFDREFRNAGLANTLGGLGGSAPGSHTLSLSLLCSSSGAYTRLAGIITASVIAAVLFMGGSVLEYFPLPVLGGLLVFLGIDIMDSWLRATRRRLPLSDYLVLCVIFLVICFSGFLEGVAVGLVITVVLFIIRLSKVDIIHDSFTGLTLHSRVNRSIPQRTILQQHGERIRGYRLSGYLFFGSASLLVETLKQELRKTPQPWCILLDFKNVSGFDISAANAFQRFISSAHAEHVRIVLTETSPRFISMLQRILPIESIDNLVTAQDIDRGLEACEEAILTEYTERTAQQANAADMLFEQSVDDMMAHLDRQILFEALVEELRPWVQECHYEGETLLVEKGKTQQGLQMLVWGSATATDGDGGTRLAHLRAGDVLVPQAAFAPFVAREHIMADSPCRTVLLTAQARLLMEQENPDLALRLDRYVISSWKA | failed
5 | MTNIQKRFYKGRVALNVLANNIENAKDIFEAAEGYVVVGVLSKDYPTVEEAVTAMKAYGKEIDDAVSIGLGAGDNRQAAVVAEIAKHYSGSHINQVFPSVGATRANLGGKDSWINSLVSPTGKVGYVNISTGPISAAGEEKAIVPIKTAIALVRDMGGNSLKYFPMKGLAHEEEYRAVAKACAEEGFALEPTGGIDKENFETILRIALEANVEQVIPHVYSSIIDKETGNTKTEDVRELLAVVKKLVDQYA | not failed
6 | MSKVFICAAIPDEQAIKEEGAVAVATAIEAGDERRARAKFHWQFLEHYPAAQDCAYKFLVCEDKPGIPRPALDSWDAEYMQENRWDEGAASFVPVETESDPMNVAFDKLAPEVQNAVMVKFDTCENITVDMVISAQELLQEDMATFDGHIVEALMKMPEVNAMYPELKLHAIGWVKHKCKPGAKWPEIQAEMRIWKKRREGERKETGKYTSVVDLARARVHRQHTENSAEKIPPVTAVIRREYKQTWKTLDDELAYALWPGDVDAGNIDGSIHRWAKNEVIDNDREDWKRISASMRKQPDALRYDRQTIFGLVRERPIDIHKDPVALNKYITEYLTTKGVFEDEGTNQSATDTLSSPVPETDAVETAIPDNEKTECKVEVEPSVEREGPFYFLFTDKDGEKYGRANKLSGLDKALAAGATEITKEEYFARKNGTYTGLPQNANTAQNSEQPEPVKVTADEVKKIMQAANISQPDANQLLAASRGEFVAGISDPNDPKWVKGIETRDSVNQNQQETEQNDQKAEQNSPNTQQNEPETKQPEPVAQQEPEKVCTACGQTGGGNCPDCGAVMGDATYQETFDEEYQVEVQEDDPEEMEGAEHPHKENTDGNQHHDSDNETGETADHSIKVNGHQEITSTSRTCDHLMIDLETMGKNPDAPIISIGAIFFDPQTGDMGPEFSKTIDLETAGGVIDRDTIKWWLKQSREAQSAIMTDEIPLDDALLQLREFIDENSGEFFVQVWGNGANFDNTILRRSYERQGIPCPWRYYNDRDVRTIVELGKAIDFDARTAIPFEGERHNALDDARYQAKYVSVIWQKLIPNQADF | failed
7 | MKHMEKFANHFGYNRMFAKDQLTLGVHIPIENYQFHAPTMEKQVELVQKAEQYGFTGVWLRDVLLQDPDFGDPATGQIYDMMIYLTYLASKTEKIAFGTSATVLSLRHPLRVAKEIATLDQLFPERIMLGVSSGDRRADFKALGVSHETRGEKFREAFAYLEEILYKNFPSIQSTLGEVHGANLVPKPSKRVPTFITGFSQQNMEWFAEHGDGWMYYPRSPVHQAGAIGQWRELVEDYHPDVFKPFIQPMHLDLSEDPNERPTPIRLGYRTGRKALIELLDIYKSIGVNHLFLALFDGQRPADEVLDELGEEVLPHFPAL | not failed
8 | MAETLITKPPLSLSFTSLSSMLPSLSLSTANRHLSVTDTIPLPNSNSNATPPLRIAIIGFGNYGQFLAETLISQGHILFAHSRSDHSSAARRLGVSYFTDLHDLCERHPDVVLLCTSILSIENILKTLPFQRLRRNTLFVDVLSVKEFAKTLLLQYLPEDFDILCTHPMFGPQSVSSNHGWRGLRFVYDKVRIGEERLRVSRCESFLEIFVREGCEMVEMSVTDHDKFAAESQFITHTLGRLLGMLKLISTPINTKGYEALLDLAENICGDSFDLYYGLFVYNNNSLEVLERIDLAFEALRKELFSRLHGVVRKQSFEGEAKKVHVFPNCGENDASLDMMRSEDVVVKYEYNSQVSGSVNDGSRLKIGIVGFGNFGQFLGKTMVKQGHTVLAYSRSDYTDEAAKLGVSYFSDLDDLFEEHPEVIILCTSILSTEKVLESLPFQRLKRSTLFVDVLSVKEFPRNLFLQTLPQDFDILCTHPMFGPESGKNGWNNLAFVFDKVRIGMDDRRKSRCNSFLDIFAREGCRMVEMSCAEHDWHAAGSQFITHTVGRLLEKLSLESTPIDTKGYETLLKLVENTAGDSFDLYYGLFLYNPNAMEQLERFHVAFESLKTQLFGRLHSQHSHELAKSSSPKTTKLLTS | failed
9 | MVSKRLTGAVALLFLAAGAAGAAGLTVKEQLGKDIFFDTNLSINGNQSCADCHAPEAGWTGPTSEVNAHGAVYEGSIAGRFGNRKPPSSAYATTAPILKYIRQGGGMFVGGNFWDGRATGEKLGNPAADQAQGPFLNPLEQGLPDSACVVHRVCTATYGTAMETLWPGSCAIAWPADVAAACATEGTVVNLDAPNRAASDLAYDYIALAIAAYEGSTESNAFTSKYDAFLAGKAFLTPEERRGLTLFNGKAKCARCHVNTGRAPLFTDYTYDNLGVPRNSENPFYESAFNPLGINWIDQGLGGFLASRIDYSRFATANLGKHKVPTLRNVDKKTSPDFVKAFGHNGYFKSLKEIVHFYNTRDVLPTCAPGSPGEKVTCWPEPELALTMNTTELGNLKLSDAEEDALVAFMKTLTDGYQP | failed
10 | MATLSFGIAAAATTVRTIPRFNSRRSKITCEWDPKGVLGPAQTGHIARLEFKRRLERDSEAREAFQKQLREEKERRQALRQSRVVPDTAAELIEYFLDTEAQEIEYEIARLRGRLNDEFFAQIRLEIGQIRFAVTKTADIEDRLIELETLQKALEEGIEAYDKMQNELMTATNSLTKLLTSTDIKTTLLDMVEKNQINRSLLALLDENIANAYKGNQKEAGDYMEKIRSSVLKYLTV | failed
11 | MLLKPDQRLKLDDTDDNLFYAYPRFVTHVDEGFIQRLTDLYRERLQPNTRILDMMSSWVSHLPEEIKFAHVEGHGLNAEELKRNPRLNHYFVQNLNENPGLPLPDQEFDAVLNCVSVQYLQYPEAVFSEIHRILKPGGVAIISFSNRMFYQKAIQAWRDASEPGRLELVKRYFASVPGFSTPEIIARKSTAPNFLQWLGAPGGDPFYAAIAHRKLEHHHHHH | failed
12 | MTSTFNPRECKLSKQEGQNYGFFLRIEKDTEGHLVRVVEKCSPAEKAGLQDGDRVLRINGVFVDKEEHMQVVDLVRKSGNSVTLLVLDGDSYEKAVKTRVDLKELGQSQKEQGLSDNILSPVMNGGVQTWTQPRLCYLVKEGGSYGFSLKTVQGKKGVYMTDITPQGVAMRAGVLADDHLIEVNGENVEDASHEEVVEKVKKSGSRVMFLLVDKETDKRHVEQKIQFKRETASLKLLPHQPRIVEMKKGSNGYGFYLRAGSEQKGQIIKDIDSGSPAEEAGLKNNDLVVAVNGESVETLDHDSVVEMIRKGGDQTSLLVVDKETDNMYRLAHFSPFLYYQSQELPNGSVKEAPAPTPTSLEVSSPPDTTEEVDHKPKLCRLAKGENGYGFHLNAIRGLPGSFIKEVQKGGPADLAGLEDEDVIIEVNGVNVLDEPYEKVVDRIQSSGKNVTLLVCGKKAYDYFQAKKIPIVSSLADPLDTPPDSKEGIVVESNHDSHMAKERAHSTASHSSSNSEDTEM | failed
13 | MVGEVVLVNAYKKFFREYFNFKGKTSRLDFWYVILSLLILSIIPTAILSYLIFGSLMSISGGGNVQEIMEITFLNIPIFIIGIIYLFLFVPVITMTVRRWRDVGLRASGIILIFCLLVLIVILGFIIHLKQNIIIDFLIVISSSMFLITLMPSQICCTNSKNRISQFFFCSKGER | failed
